Results on six molecules are retold here after article PMC5021521, “Coordinated recruitment of Spir actin nucleators and myosin V motors to Rab11 vesicle membranes” (eLife, 2016).

The subject of one assay is AcGFP-MyoVa-GTD. The assay can be described thus: FLIM-FRET at vesicle membranes in HeLa cells. In kind it is cell-based, Mus musculus. The settings on record: AcGFP-MyoVa-GTD donor. Here is the method: Fluorescence lifetimes were imaged with a commercial FLIM upgrade kit (PicoQuant, Berlin, Germany) attached to a confocal microscope LSM 880 (Zeiss, Jena, Germany) using a 440 nm pulsed laser diode at 20 MHz repetition rate. The fluorescence was detected using the Big.2-unit (Zeiss) fed into the TimeHarp 260 photon counting board (PicoQuant). Time series of FLIM images were recorded until bright pixels accumulated at least 1000 photon events. Before pixel wise fitting (Symphotime, 64-bit, version 2, PicoQuant), a region of interest was defined manually by setting a threshold for selecting pixels of high intensity (100–300 photon events per pixel). Fitting employed an exponential two-component model to 20 ns of the decay without binning. Lifetime images contained the color coded, intensity weighted average in each pixel.
For an improved automated selection of vesicular structures in cells, we followed a previously established semi-automated approach ([Austen et al., 2015]). Briefly, confocal imaging was done using a Leica TCS SP5 X confocal microscope equipped with a pulsed white light laser (WLL, 80 MHz repetition rate; NKT Photonics, Birkerod, Denmark), a FLIM X16 TCSPC detector (LaVision Biotec, Bielefeld, Germany) and a 63x water objective (HCX PL APO CS, NA = 1.2). A band-pass filter 514/30 (AHF Analysentechnik, Tübingen, Germany) was used to block acceptor emitted photons. Data analysis includes manual selection of the cytoplasmic regions followed by a threshold algorithm, segmenting high intensity regions based on spatial signal changes at varying levels. The custom-written MATLAB program ([Austen et al., 2015]) calculates the average FRET efficiency E according to E = 1−τDA/τD
with τD as the mean donor lifetime τDA as mean donor lifetime in presence of an acceptor fluorophore. E represents the entire ROI of a single cell. Here, fitting employed an exponential one-component fit to 10 ns of decay; the first 0.5 ns were omitted due to the instrumental response. […]

A further assay concerns the target T1, MyoVa-GTD (Homo sapiens, UniProt Q9Y4I1).
T1 construct: aa 1461 - 1853 (BamHI / XhoI); His6 (6xHis) with rTEV site (N, cleaved yes); made in house; host or cells: Escherichia coli BL21(DE3) or BL21-CodonPlus-RILP
The assay can be described thus: Surface plasmon resonance, Rab11a captured. The assay is classed as binding. Here is the method:
The assays were carried out at 25°C in buffer (50 mM Hepes pH 7.5, 100 mM NaCl, 2 mM MgCl2, 1 mM TCEP). 200–250 resonance units (RU; 1RU ≈ 1 pg × mm^−2) of Rab11a-Q70L(GTP) or Rab11-wt(GDP) were captured through their His6-tag on the surface of a NTA sensorchip using a Biacore 2000 instrument (GE Healthcare Life Sciences). MyoVa-GTD or MyoVb-GTD (10 nM–5 µM) were then injected over the tethered Rabs for one minute at a flow rate of […]. The surface was regenerated with a 2-min 0.3 M EDTA incubation and a 1-min 0.1% SDS wash. The real-time interaction profiles were double referenced using the Scrubber 2.0 software (BioLogic Software, Campbell, Australia), both the signals from a reference surface (with a non-relevant protein captured on NTA) and from blank experiments using buffer instead of MyoV-GTD were subtracted. The MyoV-GTD concentration-dependence of the steady-state SPR signals was then analyzed to determine the dissociation equilibrium constants (Kd) of the different complexes using the numerical integration algorithm software Biaevaluation 4.1. Each experiment (10 point 2-fold dilution concentration series each) was repeated in triplicate, yielding mean Kd values and standard errors (SEM).
For orientation: Surface plasmon resonance follows binding to a sensor surface in real time, without labels.

A further assay has as its system HeLa cells. The assay can be described thus: Subcellular localization by fluorescence microscopy. In kind it is cell-based. Here is the method: HeLa cells were seeded on microscope cover glasses and transfected with Myc-epitope-tagged Spir-2 proteins and fluorescently-tagged MyoV and Rab11 proteins as described above. Cells were fixed with paraformaldehyde (3.7% in 1x PBS) for 20 min at 4°C and subsequently permeabilized using 0.2% Triton X-100 (in 1x PBS) for 3.5 min, room temperature. Cells were incubated with anti-c-Myc antibody (9E10, mouse monoclonal, 2 µg/ml, Santa Cruz Biotechnology; RRID: AB_627268) for 1 hr at room temperature and conjugated anti-mouse secondary antibodies (Cy5; from donkey, 3.25 µg/ml, Dianova (RRID: AB_2340820) and TRITC; from donkey, 3.125 µg/ml, Dianova (RRID: AB_2340767)) for 1 hr at room temperature avoiding exposure to light. Finally, cells were mounted on microscope slides with Mowiol and analyzed with a Leica AF6000LX fluorescence microscope, equipped with a Leica HCX PL APO 63x/1.3 GLYC objective and a Leica DFC350 FX digital camera (1392 × 1040 pixels, 6.45 × 6.45 µm pixel size). 3D stacks were recorded and processed with the Leica deconvolution software module. In case of the MyoVa autoregulation/activation experiments, we quantified the MyoVa expression levels. […] In order to clearly distinguish between vesicular and cytoplasmic MyoVa localization, we imaged either high or low expressing cells and determined the sum of pixel gray values per cell as a measure for the MyoVa expression levels. Based on that, we only used cells for the autoregulation analysis having a sum of pixel gray values less than 20 × 10^6 for the expression of GFP-MyoVa-D-FL. Images were recorded using the Leica LASX software and further processed with Adobe Photoshop and subsequently assembled with Adobe Illustrator.

For assay [1], the system named is Spir-2:MyoVa:Rab11 tripartite complex. The assay can be described thus: Analytical gel filtration. In kind it is binding, Homo sapiens. The settings on record: Superdex 200 10/30; 50 mM Tris pH 8.0, 150 mM NaCl, 2 mM MgCl2, 2 mM TCEP. Here is the method: Complex formations were analyzed by analytical gel-filtration using Superdex 200 10/30 Increase column (GE Healthcare Life Sciences) and UV light absorbance at 280 nm and 260 nm and Visible light absorbance at 587 nm at flow rate of 0.75 ml/min in 50 mM Tris pH 8.0, 150 mM NaCl, 2 mM MgCl2, 2 mM TCEP buffer. Fractions of 500 µl were collected and analyzed by SDS-PAGE.
A 100 µl sample of His6-Rab11a-1-173-Q70L at 6 mg/ml, or of MyoVa-GTD at 5 mg/ml or of His6-mCherry-Spir-2-linker at 6 mg/ml were centrifuged at 10,000 x g for 10 min and injected into the column to monitor reference elution profiles of the individual proteins. The proteins were mixed pairwise to the same final concentrations and incubated 30 min at 4°C in a total volume of 100 µl. The two-component complexes (His6-mCherry-Spir-2-linker:MyoVa-GTD and MyoVa-GTD:His6-Rab11a-1-173-Q70L) were confirmed by the elution peak shifts and SDS-PAGE analysis. […] The tripartite His6-mCherry-Spir-2-linker:MyoVa-GTD:His6-Rab11a-1-173-Q70L complex was analyzed at the same concentration of the individual components and confirmed by SDS-PAGE.
A general note: In gel filtration, larger molecules generally elute earlier.

Changes are numbered by the printed parent chain. Numbers in names are those of the source.

T1 sequence (Q9Y4I1 1463-1855): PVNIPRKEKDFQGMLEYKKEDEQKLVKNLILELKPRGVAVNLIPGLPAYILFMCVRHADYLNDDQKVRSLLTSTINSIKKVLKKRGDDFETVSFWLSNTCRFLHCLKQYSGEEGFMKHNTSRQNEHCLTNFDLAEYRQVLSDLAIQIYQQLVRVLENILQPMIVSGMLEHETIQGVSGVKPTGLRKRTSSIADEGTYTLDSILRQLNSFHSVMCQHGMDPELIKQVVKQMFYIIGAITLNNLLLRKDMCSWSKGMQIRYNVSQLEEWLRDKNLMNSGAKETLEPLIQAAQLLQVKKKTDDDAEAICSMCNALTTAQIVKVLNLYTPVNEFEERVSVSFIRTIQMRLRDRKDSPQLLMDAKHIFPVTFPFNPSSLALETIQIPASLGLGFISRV

B1: mStrawberry-Spir-2-SB-FYVE: mStrawberry-hs-Spir2-SB-FYVE aa 438 - 714 (protein)
chain: DRSFSEHDLAQLRSEVASGLQSATHPPGGTEPPRPRAGSAHVWRPGSRDQGTCPASVSDPSHPLLSNRGSSGDRPEASMTPDAKHLWLEFSHPVESLALTVEEVMDVRRVLVKAEMEKFLQNKELFSSLKKGKICCCCRAKFPLFSWPPSCLFCKRAVCTSCSIKMKMPSKKFGHIPVYTLGFESPQRVSAAKTAPIQRRDIFQSLQGPQWQSVEEAFPHIYSHGCVLKDVCSECTSFVADVVRSSRKSVDVLNTTPRRSRQTQSLYIPNTRTLDFK
modifications: left off: mStrawberry, end not stated, kept
In the case of B1, in the assay with AcGFP-MyoVa-GTD, the “fluorescence lifetime / FRET result in words” value was “did not alter the lifetime”.

B2: Rab11GDP: Rab11-wt(GDP) captured through its His6-tag (protein)
chain: MGTRDDEYDYLFKVVLIGDSGVGKSNLLSRFTRNEFNLESKSTIGVEFATRSIQVDGKTIKAQIWDTAGQERYRAITSAYYRGAVGALLVYDIAKHLTYENVERWLKELRDHADSNIVIMLVGNKSDLRHLRAVPTDEARAFAEKNGLSFIETSALDSTNVEAAFQTILTEIYRIVS
modifications: left off: His6, N-terminal, kept
notes: Rab11-wt(GDP) captured through its His6-tag
Take B2: in the assay with MyoVa-GTD (MyoVa-GTD 10 nM–5 µM over captured Rab11a-Q70L(GTP) or Rab11-wt(GDP), 50 mM Hepes pH 7.5, 100 mM NaCl, 2 mM MgCl2, 1 mM TCEP, 25°C, steady state, mean ± SEM, N = 3, read-out: dissociation equilibrium constant (Kd)), the equilibrium dissociation constant (Kd) (as a rule, the concentration at which binding is half-saturated) was 2620 ± 490 nM. Further, the affinity in words entry with MyoVa-GTD (Rab11-GDP for MyoVa) is recorded as “relatively high affinity”.

B3: Myc-Spir-2-KIND-WH2-GTBM: Myc-hs-Spir2-KIND-WH2-GTBM aa 2 - 437 (protein, UniProt Q8WWL2 2-437, looked up, fragment)
chain: ARAGSCGGAAAGAGRPEPWELSLEEVLKAYEQPLNEEQAWAVCFQGCRGLRGSPGRRLRDTGDLLLRGDGSVGAREPEAAEPATMVVPLASSEAQTVQSLGFAIYRALDWGLDESEERELSPQLERLIDLMANNDSEDSGCGAADEGYGGPEEEEEAEGVPRSVRTFAQAMRLCAARLTDPRGAQAHYQAVCRALFVETLELRAFLARVREAKEMLQKLREDEPHLETPRAELDSLGHTDWARLWVQLMRELRRGVKLKKVQEQEFNPLPTEFQLTPFEMLMQDIRARNYKLRKVMVDGDIPPRVKKDAHELILDFIRSRPPLKQVSERRLRPLPPKQRSLHEKILEEIKQERRLRPVRGEGWAARGFGSLPCILNACSGDAKSTSCINLSVTDAGGSAQRPRPRVLLKAPTLAEMEEMNTSEEEESPCGEVTLKR
modifications: Myc tag
With B3, the “subcellular localization in words” value with HeLa cells (co-expression of eGFP-MyoVa-FL and N-terminal Spir-2 fragment) is “both proteins localize to vesicle membranes”; in the assay with HeLa cells (single expression), “even cytoplasmic and nuclear localization”.

B4: Rab11a-Q70L: hs-Rab11a-Q70L aa 1 - 173, GTP-locked mutant (protein)
chain: MGTRDDEYDYLFKVVLIGDSGVGKSNLLSRFTRNEFNLESKSTIGVEFATRSIQVDGKTIKAQIWDTAGLERYRAITSAYYRGAVGALLVYDIAKHLTYENVERWLKELRDHADSNIVIMLVGNKSDLRHLRAVPTDEARAFAEKNGLSFIETSALDSTNVEAAFQTILTEIY
modifications: left off: His6, N-terminal, kept
notes: hs-Rab11a-Q70L aa 1 - 173, GTP-locked mutant
For the molecule B4, the “co-elution in gel filtration in words” value in assay [1] was “co-elution of all three proteins”.

B5: mStrawberry-Spir-2-GTBM-SB-FYVE: mStrawberry-hs-Spir2-GTBM-SB-FYVE aa 361 - 714 (protein)
chain: GEGWAARGFGSLPCILNACSGDAKSTSCINLSVTDAGGSAQRPRPRVLLKAPTLAEMEEMNTSEEEESPCGEVTLKRDRSFSEHDLAQLRSEVASGLQSATHPPGGTEPPRPRAGSAHVWRPGSRDQGTCPASVSDPSHPLLSNRGSSGDRPEASMTPDAKHLWLEFSHPVESLALTVEEVMDVRRVLVKAEMEKFLQNKELFSSLKKGKICCCCRAKFPLFSWPPSCLFCKRAVCTSCSIKMKMPSKKFGHIPVYTLGFESPQRVSAAKTAPIQRRDIFQSLQGPQWQSVEEAFPHIYSHGCVLKDVCSECTSFVADVVRSSRKSVDVLNTTPRRSRQTQSLYIPNTRTLDFK
modifications: left off: mStrawberry, end not stated, kept
B5: the “fluorescence lifetime / FRET result in words” value in the assay on AcGFP-MyoVa-GTD is “able to reduce the fluorescence lifetime”.

B6: Spir-2-GTBM-SB-FYVE-LALA: mStrawberry-hs-Spir2-GTBM-SB-FYVE-L408A,L409A (protein)
chain: B5 chain with L48A, L49A
modifications: left off: mStrawberry, end not stated, kept
notes: mStrawberry-hs-Spir2-GTBM-SB-FYVE-L408A,L409A
Take B6: in the assay on AcGFP-MyoVa-GTD, the “fluorescence lifetime / FRET result in words” value is reported as “did not alter the lifetime”.
